Where a chain is given by its changes, count along the chain named.
B1: Z062 (BRA112_70) (antibody, V domains shown)
VH: EVQLVESGGGVVQPGRSLRLSCAASGFSFSSHAMYWVRQAPGKGLEWVAIVSYDGSTKNYADSVKGRFTISRDNSKNTIYLHLNSLRAEDTAVYFCAREVDGIYGYLHYWGQGTLVTVSS
VL: EIVLTQSPATLSLSPGERATLSCRARQNVRNFLAWYQQKPGQAPRLLIYDASNRATDIPARFSGSGSGTDFTLTISSLEPEDFAVYYCQQRSYSITFGQGTRLEIK
B2: Z057 (MEX84_p4-54) (antibody, V domains shown)
VH: EVQLVQSGAEVKRPGASVKVSCKASGYTFADYYIHWVRQAPGLGLEWMGWINPKTGFSHYEQTFQGRVTMARDTSIPAAYMELSSLKSDDTAIYYCARGGRINVAEALRYWGQGSLVTVSS
VL: DIQMTQSPSTLSTFVGDRVTITCRASQTIGDWLAWYQQKPGKAPKLLISKATRLESGVPSRFSGSGSETEFSLTINSLQPDDVAAYYCQQYMSYPWTFGQGTKLEIK
B3: Z016 (MEX84_p2-55) (antibody, V domains shown)
VH: QVQLVQSGAEVKKPGASVKLSCKASGYTFTSYYVHWVRQAPGQGLEWMGIINPGNNFVSFAQNFYDRATMTRDTSTNTVYMELTNLQSEDTAVYYCARTLVAPSAQSMYYFDFWGQGTLVTVSS
VL: EIVLTQSPGTLSLSPGERGTLSCRASQYITTGHFAWYQQKPGRAPRLLIYGASVRATGVPDRFSGSGAETDFTLTISRLDPEDVGVYYCQQYGSSPVTFGPGTKVDIK
B4: Z053 (BRA138_65) (antibody, V domains shown)
VH: QLQLQESGPGLVKPSETLSLTCTVSGGSISSYNYYWGWIRQPPGKGLEFIGSIYYTGSTYYNPSLRSRVTISVDTSKNQFSLKLTSVTAADTAVYYCARHGPGMGHNWYFDLWGRGTLVTVSS
VL: EIVLTQSPATLSLSPGERATLSCRASQSISSYLAWYQQKPGQAPRLLIYDASNRAPGIPARFSGSGSGTDFTLTISSLEPEDFAVYYCQQRSTWLTFGGGTKVEIK
B5: Z005 (MEX18_13) (antibody, V domains shown)
VH: EVQLLESGGGLVQPGGSLRLSCAASGFTFSSYAMSWVRQAPGKGLEWVSSFSGIDDSTWYADSVKGRFTISRDNSKSTLYLQMNSLRAEDTAVYYCAKDRLVRGFAEVLDYWGRGTLVTVSS
VL: DIQMTQSPSSLSASVGDRVTITCRASQDISKYLAWYQQRPGKVPNLLIYTASTLQSGVPSRFSGSGSGTHFTLTISSLQPEDVATYYCQKYNSVPWTFGQGTKVEIK
B6: Z036 (BRA112_91) (antibody, V domains shown)
VH: EVQLLESGGDLVQPGGSLRLSCAASGFTFSTYGMAWVRQAPGKGLEWLSSISSVDDSKYYAASVKGRFTISRDNSRNTLYLHMNSLRVDDTAVYYCAKDRIPHGLGELYANWGQGTLVTVSS
VL: DIQMTQSPSTLSASVGDRVTITCRASQSISGWLAWYQQKPGKAPRLLMHKASNLYSGVPSRFSGSGSGTEFTLTISSLQPDDFATYYCQHYHSYPYTFGQGTKVEIK
B7: Z002 (MEX18_27) (antibody, V domains shown)
VH: EVQLLESGGGLVQPGGSLRLSCATSGFTFSTYAMSWVRQAPGKGLEWVSSFSGVDDSTYYAESVKGRFTISRDNSKNTVYLQMTRLRAEDTAVYYCAKDRGPRGVGELFDSWGQGTLVTVSS
VL: DIQMTQSPSTLSASVGDRVTMTCRASQSINRWLAWYQQKPGKAPKLLIYTTSTLKSGVPSRFSGSGSGTEFTLTISSLQPDDFATYYCQHFHSVPWTFGQGTKVEIK
B8: Z011 (MEX105_15) (antibody, V domains shown)
VH: EVQLLESGGGLVQPGGSLRLSCAASGFTFRTYAMSWVRQPPGKGLEWVSSISAREDSTYFAASVRGRFTISRDNSKNTLYLQMNNLRAEDTALYYCAKDRLQLGVGELYESWGQGTLVTVSS
VL: B7 VL with M21I, S28N, R31S, T50M, T51A, T53S, K55Q, I75V, F91Y, V94Y
B9: Z034 (BRA112_09) (antibody, V domains shown)
VH: EVQLLESGGGLAQPGGSLRLSCETSGFTFRSYGMGWVRQAPGKGLEWVSSIYISGDSTYYAASVKGRFTISRDNSKSTLYLQMDRLTAEDTAVYYCVRDRIQGGFGELYRYWGQGTLVTVSS
VL: B7 VL with I29V, R31K, T50E, T53I, K55E, P59S, F91Y, S93G, V94Y
B10: Z003 (MEX18_58) (antibody, V domains shown)
VH: EVQLLESGGGLVQPGGSLRLSCATSGFTFTTFAMSWVRQAPGKGLEWVSSISGADDSTYYAASVKGRFTISRDNSRSTLFLQMNSLRAEDTAVYYCAKDRGPRGVGELFDSWGQGTLVTVSS
VL: B7 VL with M21I, N30S, R31K, K45R, H92F
B11: Z059 (MEX84_p4-34) (antibody, V domains shown)
VH: EVQLVQSGAEVKTPGSSVKVSCKTSGGTFSNFAITWVRQAPGQGLEWMGGIIPLFGITNYTQKFQGRVTITTDESKTTAYMDLSGLRSEDTAVYFCARGRDSSGRLLDHWGQGTLVTVSS
VL: EIVMTQSPATLSVSPGERATLSCRASQTVNRNLAWYQQKPGQAPRLLIYAASARATGVPARFSGSGSGTEFTLTISSLQSEDFVVYYCQQYNNWPPLTFGGGTKLEIK
B12: Z056 (MEX84_p2-94) (antibody, V domains shown)
VH: EVQLVQSGAEVKKPGASVKVSCKASGNTFMGYYFHWVRQAPGQGLEWMGWINPNSGHANIAQTFQGRVTMTRDPSITTAYMELSRLRSDDTAVFYCARGGMLGQLWALDNWGQGTLVTVSS
VL: DIQMTQSPSTLSASVGDRVTITCRASQSISHWLAWYQQRPGEAPKLLIYQASTLESGVPSRFSGSGSGTEFTLSISSLQPDDFATYYCQQYQSSPYTFGQGTKLEIK
B13: Z061 (BRA112_36) (antibody, V domains shown)
VH: EVQLVESGGGVVQPGRSLRLSCAASGFTFSISTIHWVRQAPGKGLEYVVVISHDGNTKYYADSVKGRFIISRDNSKNTVFLQMNSLRPVDTAVYYCARGEVGYFDLWGRGTLVTVSS
VL: EIVLTQSPATLSLSPGERATLSCRASQSVSSFLAWYQQKPGQPPRLLIYDASTRATGIPARFSGSGSGTDFTLTISSLEPEDFAVYYCQQRSNWPPITFGQGTRLEIK
B14: Z055 (MEX84_p4-61) (antibody, V domains shown)
VH: EVQLVQSGAEVKKPGASVKVSCKASGYTFSGYYIHWLRQAPGQGLEWMGWINSNSGGADSGPRFHGRVTMTRDTSINTAYLELTNLRSDDTAVYYCARRTYYDTRFPYWYFDLWGRGTLVTVSS
VL: AIRMTQSPSSLSASVGDRVTITCRASQDIGSYLNWYQQKPGKAPNVLISAASTLQSGVPSRISGIGSGTDFTLTISSLQPEDFATYYCQQSLSAPYTFGQGTKLEIK
B15: Z007 (MEX105_50) (antibody, V domains shown)
VH: EVQLLESGGGLVRPGGSLRLSCTASGFTFRRYAMAWVRQAPGKGLEWVSLIYDGDDSTYYAKSVKGRFAISRDNSKNTLSLQMNSLRAEDTAVYYCVKDRDNGWSSIVDWGQGTLVTVSS
VL: DIQMTQSPSTLSASVGDRVTITCRASHSISGWLAWYQQKPGKAPKLLIYQASILESGVPSRFSGSGSGTEFTLTIGSLQPEDFATYFCQQYSTFWTFGQGTKVEIK
B16: Z009 (MEX105_64) (antibody, V domains shown)
VH: B15 VH with D53N, K62E, A69T, I70V, K76Q, V93I, K98R
VL: B15 VL with H27R, S28T, S30G, G31S, S56G, G66V, G76R
B17: Z008 (MEX105_60) (antibody, V domains shown)
VH: B15 VH with Y32F, Y52W, D53N, K62E, K65R, A69T, K76H, N84R, V93I
VL: B15 VL with H27Q, S28T, S30G, G31N, I53V, G76S
B18: Z050 (BRA138_28) (antibody, V domains shown)
VH: QVQLVQSGAEVKKPGSSVKVSCKAPGGTFSRYSIAWVRQAPGQGLEWMGGINPTFTTPNYAQKFQGRVTITADESTNTAYLDLSSLRSEDTAVYYCARFRYYYESGGYSDASPYYLDYWGQGTLVTVSS
VL: EIVLTQSPATLSLSPGERVTLSCRASQSVSSYLAWYQQKPGQAPRLLIYDASNRATGIPARFTGSGSGTDFTLTISSLEPEDFAVYYCQQRSNWPLTFGGGTKVEIK
B19: Z052 (BRA138_62) (antibody, V domains shown)
VH: QVQLQESGPGLVKPSQTLSLTCTVSGGSITGGVYYWNWIRHHPGKGLEWIGYMFYSGDTDYNPSLRSRVTISGDTSKNKFSLNLNSVTAADTAVYYCARAGFDYGSPVSAFDIWGQGTLVTVSS
VL: EIVLTQSPATLSLSPGERATLSCRASQSVSSTYLVWYQQKPGQAPRLLIYGASSRATGIPDRFSGSGSGTDFTLTISRLEPEDFAVYFCQQYAHSPRGYTFGQGTKLEIK
B20: Z051 (BRA138_59) (antibody, V domains shown)
VH: QVQLQESGPGLVKPSQTLSLTCTVSGVSISSGGYYYSWFRQLPGKGLEWIGHIYYTGNTHYNPSLRSRLTISVDTSKNQFSLKLSSVTAADTARYYCARAWCEYAAYCWFDPWGRGTLVTVSS
VL: EIVLTQSPGTLSLSPGERATLSCRASQSVTSSYLAWYQHKPGQAPRLLIYGASSRAPGIPDRFSGSGSGTDFTLTISRLEPEDFAVYWCQQYGRSPFTFGQGTKLEIK
B21: Z004 (MEX18_89) (antibody, V domains shown)
VH: EVQLLESGGGLVQPGGSLRLTCATSGFTFRDYAMSWVRQAPGKGLEWVSSYSGIDDSTYYADSVKGRFTISRDNSKSTLSLHMNSLRAEDSALYFCAKDRGPRGVGELFDSWGQGTLVTVSS
VL: B7 VL with M21I, N30S, R31K, H92Y

target: T1, ZIKV envelope domain III ([..]), polyhistidine-AviTag, made in HEK-293-6E cells (Zika virus (KJ776791)); assay: ELISA on ZIKV EDIII (Table A); settings: remark: other sources report otherwise

Binder | EC50 [µg/mL]
B1 | 0.208
B2 | 0.0828
B3 | 0.0724
B4 | 1.68
B5 | 0.216
B6 | 0.0172
B7 | 0.0252
B8 | 0.038
B9 | 0.0235
B10 | 0.0255
B11 | 0.61
B12 | 0.982
B13 | 0.311
B14 | 1.88
B15 | 0.0346
B16 | 0.0284
B17 | 0.0326
B18 | 0.0303
B19 | 0.0131
B20 | 1.86

target: T1, ZIKV envelope domain III ([..]), …; assay: ELISA, biotinylated Z004 on ZEDIII, streptavidin-HRP; settings: remark: other sources report otherwise

Binder | EC50 [µg/mL]
B21 | 0.16
